Target: T1, Rb^P I703F (human, UniProt P06400 380-788, I703F)
T1 sequence: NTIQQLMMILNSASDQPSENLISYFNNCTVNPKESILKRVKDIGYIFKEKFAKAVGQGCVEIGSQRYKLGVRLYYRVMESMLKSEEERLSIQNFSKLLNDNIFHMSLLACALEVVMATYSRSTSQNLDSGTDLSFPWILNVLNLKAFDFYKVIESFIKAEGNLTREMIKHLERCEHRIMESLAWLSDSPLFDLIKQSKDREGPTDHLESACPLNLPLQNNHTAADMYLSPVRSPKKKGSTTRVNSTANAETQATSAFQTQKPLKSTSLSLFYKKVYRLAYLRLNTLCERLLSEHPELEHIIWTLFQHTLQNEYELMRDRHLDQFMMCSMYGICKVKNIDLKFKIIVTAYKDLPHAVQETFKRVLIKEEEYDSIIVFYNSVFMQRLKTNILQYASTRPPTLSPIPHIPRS
Test: fluorescence polarisation

B1: TMR-E7^LxCxE (LxCxE peptide of the E7 oncoprotein from HPV, TMR-labeled) (peptide)
peptide: DLYCYEQLN
modifications: not fully specified; TMR fluorescent label (TMR-E7^LxCxE)
Q: For B1, which Kd is on record?
A: 53 nM

— publication doi:10.1101/2024.09.22.614354 (bioRxiv, 2024)
